Columns and labels:
[1] = test system: A549 cells overexpressing IL-4 receptor; test: Cell binding test using flow cytometry (FACS); type: cell-based, human; details: 400 nM, 4° C., 20 min, FIG. 5
Experimental: First, A549 cells were grown to about 80% confluence in a 100 mm-diameter plate. The plated cells were washed twice with PBS, and detached from the plate using Trypsin/EDTA. Then, 2×10^5/100 μl cells were suspended in PBS containing 1% bovine serum albumin (BSA), and incubated at 4° C. for 30 min. […] The above blocking procedure was performed on one group, and was not performed on the other group, and the following experiment was performed on both groups. After washing twice with PBS, the ferritin without AP1 insertion and the AP1-inserted ferritin were diluted to 400 nM in buffer (20 mM Tris, 150 mM NaCl, 180 mM Histidine), and then allowed to bind at 4° C. for 20 min. After washing twice with PBS, the ferritin light chain antibody (D-18, sc-14420) was diluted to 1:400 in PBS buffer containing 1% BSA, and incubated in ice for 30 min. After washing twice with PBS, Alexa Fluor 488 donkey anti-goat IgG (H+L) antibody (invitrogen, USA) was diluted to 1:200 in PBS containing 1% BSA, and incubated in ice for 30 min. After washing twice with PBS, the cells were suspended in 500 ul PBS, and analyzed with FACS.
First, A549 cells were grown to about 80% confluence in a 100 φ plate. The plated cells were washed twice with PBS, and detached from the plate using Trypsin/EDTA. […] After washing twice with PBS, the cells were suspended in 500 ul PBS, and then analyzed with FACS.

[2] = test system: A549 cells overexpressing IL-4 receptor; test: Cell binding test using confocal microscope; type: cell-based; details: 400 nM, 4° C., 20 min, FIG. 6
Experimental: First, A549 cells were grown to about 80% confluence in a 100 mm-diameter plate. The plated cells were washed twice with PBS, and detached from the plate using Trypsin/EDTA. Then, 2×10^5/100 ul cells were suspended in PBS containing 1% bovine serum albumin (BSA), and incubated at 4° C. for 30 min. After washing twice with PBS, the ferritin without AP1 insertion and the AP1-inserted ferritin were diluted to 400 nM in buffer (20 mM Tris, 150 mM NaCl, 180 mM Histidine), and then allowed to bind at 4° C. for 20 min. After washing twice with PBS, the ferritin light chain antibody (D-18, sc-14420) was diluted to 1:400 in PBS buffer containing 1% BSA, and incubated in ice for 30 min. After washing twice with PBS, Alexa Fluor 488 donkey anti-goat IgG (H+L) antibody was diluted to 1:200 in PBS containing 1% BSA, and then incubated in ice for 30 min. After washing twice with PBS, 4% paraformaldehyde (PFA) was added for cell fixation, and cells in suspension were added in the 8-well slide chamber. The cells were attached in the chamber by centrifugation at 1000 rpm for 10 min.
After washing twice with PBS, the cells were stained by incubation with 4′,6-diamidino-2-phenylindole (DAPI) for 3 min in dark place, mounted in antifade reagent to close a cover glass, and analyzed by Z-stack type confocal microscopy.

[3] = test system: C57BL/6J mice; test: Airway hyper-responsiveness (AHR) with FlexiVent system in APO-induced asthma model; type: in vivo; details: 50 uL of 1 mg/ml, 1 h before allergen challenge; in comparison with control ferritin; FIG. 17a
Experimental: (§1) Wild-type C57BL/6J mice were purchased from Jackson Laboratory (Bar Harbor, Me., USA), and bred in a pathogen-free animal facility. All animals were fed with a normal diet (PMI Lab Diet) with free access to water. 6-8-week-old female mice were used for this study. Animal care and experimental procedures were performed with the approval of the Animal Care Committee of KAIST.
(§2) Asthma induction was performed by the existing method (Corry D B, Folkesson H G, Warnock M L, Erle D J, Matthay M A, et al. (1996) J Exp Med 183: 109117).
Briefly, Aspergillus oryzae protease (1 mg/mL in PBS, Sigma-Aldrich) and chicken egg ovalbumin (OVA, 0.5 mg/mL in PBS, Sigma-Aldrich) allergen (APO) were mixed 1:9 (v/v) immediately before administration. Mice received four intraperitoneal sensitizations and the intranasal challenge every 4 days (0, 4, 8, 12, 16) with 50 uL of allergen. For intranasal challenge, mice were lightly anesthetized with isoflurane inhalation (Abbott Laboratory, Abbott Park, Ill., USA). A 50 uL of AP1-retaining ferritin cage (GG-AP1L, 157cysAP1-PBNC) or AP1-not-inserted ferritin cage (wt FTL), which was diluted to 1 mg/ml in PBS, was administered 1 h before allergen challenge. […]
Briefly, 16 h after final intranasal challenge, AHR was measured with a FlexiVent system (SCIREQ Inc., Montreal, Canada). […]

[4] = test system: C57BL/6J mice; test: BAL cytology in APO-induced asthma model; type: in vivo; details: 50 uL of 1 mg/ml, 1 h before allergen challenge; in comparison with control ferritin
Experimental: as §1, §2
(§3) Briefly, Aspergillus oryzae protease (1 mg/mL in PBS, Sigma-Aldrich) and chicken egg ovalbumin (OVA, 0.5 mg/mL in PBS, Sigma-Aldrich) allergen (APO) were mixed 1:9 (v/v) immediately before administration. Mice received four intraperitoneal sensitizations and the intranasal challenge every 4 days (0, 4, 8, 12, 16) with 50 uL of allergen. For intranasal challenge, mice were lightly anesthetized with isoflurane inhalation (Abbott Laboratory, Abbott Park, Ill., USA). A 50 uL of AP1-retaining ferritin cage (GG-AP1L, 157cysAP1-PBNC) or AP1-not-inserted ferritin cage (wt FTL), which was diluted to 1 mg/ml in PBS, was administered 1 h before allergen challenge.
For phenotypes of allergic asthma, AHR, BAL cytology, BAL glycoprotein assay, and lung histopathology were performed by the existing method (Lee, S. H., et al. (2003) Nat. Med. 9, 128111286). […]

[5] = test system: C57BL/6J mice; test: Secreted glycoprotein in BAL fluid (modified ELISA) in APO-induced asthma model; type: in vivo; details: 50 uL of 1 mg/ml, 1 h before allergen challenge; FIG. 17d
Experimental: as §1
Briefly, Aspergillus oryzae protease (1 mg/mL in PBS, Sigma-Aldrich) and chicken egg ovalbumin (OVA, 0.5 mg/mL in PBS, Sigma-Aldrich) allergen (APO) were mixed 1:9 (v/v) immediately before administration. Mice received four intraperitoneal sensitizations and the intranasal challenge every 4 days (0, 4, 8, 12, 16) with 50 uL of allergen. […]
Levels of secreted glycoprotein were measured with modified ELISA by the existing method (Lee, S. H. et al., (2004) J. Allergy Clin. Immunol. 113, 72778.). […]
40 ul of each sample was transferred to an ELSA plate Greiner, Kremsmunster, Austria), and incubated at 37° C. for 2 h. […] After final washing upon the completion of the reaction, 70 ul of alkaline phosphatase substrate (5 mmol in 0.1 mol/L alkaline buffer, Sigma-Aldrich) was added, and developed until a mucin standard curve was readily apparent. After termination of the reaction with addition of 40 ul of 0.5 N sodium hydroxide, optical density was measured at 405 nm by an ELISA reader (BioRad, Hercules, Calif., USA).

[6] = test system: C57BL/6J mice; test: Lung microstructure observation (PAS-stained lung slides) in APO-induced asthma model; type: in vivo
Experimental: as §1, §3
Finally, the experimental mice were sacrificed, and lung slide specimens stained with periodic acid Schiff (PAS) were prepared. Then, changes of inflammatory cells and goblet cells were observed (arrowhead: mucin-positive goblet cell, arrow: inflammatory cell).

| Molecule | binding to IL-4 receptor in A549 cells (FACS) [1] | binding to A549 cells / cell membrane (confocal microscopy) [2] | airway hyper-responsiveness (AHR) [3] | count of eosinophils in BAL fluid [4] | count of inflammation cells in bronchoalveolar lavage (BAL) fluid [4] | amount of secreted glycoprotein in BAL fluid [5] | counts of mucus-producing goblet cells [6] | counts of peribronchial inflammatory cells [6] |
| --- | --- | --- | --- | --- | --- | --- | --- | --- |
| wild type ferritin: human ferritin light chain (SEQ ID NO: 1) without AP1 insertion, control cage [reference compound] | did not bind to IL-4 receptor | did not bind to A549 cells |  |  |  |  |  |  |
| GG-AP1L: human ferritin light chain having AP1L (CRKRLDRNC) inserted in GG cassette; AP1-retaining ferritin cage used in asthma model (protein, left off: small tags and cut ends, AP1-retaining ferritin cage used in asthma model) MSSQIRQNYSTDVEAAVNSLVNLYLQASYTYLSLGFYFDRDDVALEGVSHFFRELAEEKREGYERLLKMQNQRGGRALFQDIKKPAEDEWGKTPDAMKAAMALEKKLNQALLDLHALGSARTDPHLCDFLETHFLDEEVKLIKKMGDHLTNLHRGSCRKRLDRNCGGPEAGLGEYLFERLTLKHD |  |  | significantly suppressed | significantly decreased | significantly decreased | significantly reduced | significantly reduced | significantly reduced |
